This is an account of results in paper PMC10308326.

In series [1] the test system is TALE tetM_611 (16 bp recognition) (engineered TALE (AvrBs3 scaffold in pMAL-c2X, repeats replaced; Xanthomonas?)). The experiment in a line: EMSA. Particulars: EMSA: 12 mM Tris, 60 mM KCl, 2 mM DTT, 0.1 mg/mL BSA, 30% glycerol, 5 mM MgCl2, 0.2 mM EDTA, RT 1 h then 4 °C 30 min, TALE 0.03-200 nM; GO assay: TALE storage …. For orientation: A gel shift assay detects complexes by their altered migration in electrophoresis.

For series [2], the system named is TALE tetM_1298 (14 bp recognition) (engineered TALE (AvrBs3 scaffold in pMAL-c2X, repeats replaced; Xanthomonas?)). The experiment in a line: EMSA. Particulars: EMSA: 12 mM Tris, 60 mM KCl, 2 mM DTT, 0.1 mg/mL BSA, 30% glycerol, 5 mM MgCl2, 0.2 mM EDTA, RT 1 h then 4 °C 30 min, TALE 0.03-200 nM; GO assay: TALE storage ….

As usually defined, the Kd is the constant that tells how readily two partners part at equilibrium. For “GCGTGTTCTCTGTTCCCTCGCG / TTTTTTTTTTTTTTTCGCGAGGGAACAGAGAACACGC [tetM_611 EMSA oligo]”, the Kd in series [1] was determined as 4.6 nM.
With “GCGCCTTTCTGGGCTTCGCG / TTTTTTTTTTTTTTTCGCGAAGCCCAGAAAGGCGC [tetM_1298 EMSA oligo]”, in series [2], the Kd is 1.2 nM.
